Test results reported in US20150344570A1 (published 2015).

T1: FcγRIIa R (FcγRIIa, allotype with Arg at position 131), extracellular domain with C-terminal His tag (human, UniProt P12318 34-217)
T1 construct: extracellular domain; also called FcγRIIa R type; 2aR
T1 sequence (looked up): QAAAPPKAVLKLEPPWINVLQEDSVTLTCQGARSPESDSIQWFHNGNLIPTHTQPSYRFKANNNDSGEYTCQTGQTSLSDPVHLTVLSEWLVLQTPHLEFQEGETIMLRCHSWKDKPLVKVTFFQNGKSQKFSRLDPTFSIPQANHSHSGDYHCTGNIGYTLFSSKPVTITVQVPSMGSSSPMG


Each binder was assayed against T1, FcγRIIa R (FcγRIIa, allotype with Arg …) (assay: SPR (Biacore), antibody captured on antigen peptide chip, FcγR as analyte; relative binding).

Row | Binder | He/Con_2aR
1 | GpH7-A5/GpH7-B3 variant S337_15Y/GpL16-k0 (antibody, human IgG1, kappa, also called He Ab) heavy 1: not shown heavy 2: not shown light: DIVMTQSPLSLPVTPGEPASISCQASESLVHSNRNTYLHWYLQKPGQSPQLLIYKVSNRFSGVPDRFSGSGSGTDFTLKISRVEAEDVGVYYCSQNTHVPPTFGQGTKVEIERTVAAPSVFIFPPSDEQLKSGTASVVCLLNNFYPREAKVQWKVDNALQSGNSQESVTEQDSKDSTYSLSSTLTLSKADYEKHKVYACEVTHQGLSSPVTKSFNRGEC | 105 % of GpH7-A5/GpH7-B3/GpL16-k0 (=100)
2 | GpH7-A5/GpH7-B3 variant T335_02A/GpL16-k0 (antibody, human IgG1, kappa, also called He Ab) heavy 1: not shown heavy 2: not shown light: DIVMTQSPLSLPVTPGEPASISCQASESLVHSNRNTYLHWYLQKPGQSPQLLIYKVSNRFSGVPDRFSGSGSGTDFTLKISRVEAEDVGVYYCSQNTHVPPTFGQGTKVEIERTVAAPSVFIFPPSDEQLKSGTASVVCLLNNFYPREAKVQWKVDNALQSGNSQESVTEQDSKDSTYSLSSTLTLSKADYEKHKVYACEVTHQGLSSPVTKSFNRGEC | 102 % of GpH7-A5/GpH7-B3/GpL16-k0 (=100)
3 | GpH7-A5/GpH7-B3 variant S337_18N/GpL16-k0 (antibody, human IgG1, kappa, also called He Ab) heavy 1: not shown heavy 2: not shown light: DIVMTQSPLSLPVTPGEPASISCQASESLVHSNRNTYLHWYLQKPGQSPQLLIYKVSNRFSGVPDRFSGSGSGTDFTLKISRVEAEDVGVYYCSQNTHVPPTFGQGTKVEIERTVAAPSVFIFPPSDEQLKSGTASVVCLLNNFYPREAKVQWKVDNALQSGNSQESVTEQDSKDSTYSLSSTLTLSKADYEKHKVYACEVTHQGLSSPVTKSFNRGEC | 107 % of GpH7-A5/GpH7-B3/GpL16-k0 (=100)
4 | GpH7-A5/GpH7-B3 variant T335_05P/GpL16-k0 (antibody, human IgG1, kappa, also called He Ab) heavy 1: not shown heavy 2: not shown light: DIVMTQSPLSLPVTPGEPASISCQASESLVHSNRNTYLHWYLQKPGQSPQLLIYKVSNRFSGVPDRFSGSGSGTDFTLKISRVEAEDVGVYYCSQNTHVPPTFGQGTKVEIERTVAAPSVFIFPPSDEQLKSGTASVVCLLNNFYPREAKVQWKVDNALQSGNSQESVTEQDSKDSTYSLSSTLTLSKADYEKHKVYACEVTHQGLSSPVTKSFNRGEC | 104 % of GpH7-A5/GpH7-B3/GpL16-k0 (=100)
5 | GpH7-A5/GpH7-B3 variant T335_13S/GpL16-k0 (antibody, human IgG1, kappa, also called He Ab) heavy 1: not shown heavy 2: not shown light: DIVMTQSPLSLPVTPGEPASISCQASESLVHSNRNTYLHWYLQKPGQSPQLLIYKVSNRFSGVPDRFSGSGSGTDFTLKISRVEAEDVGVYYCSQNTHVPPTFGQGTKVEIERTVAAPSVFIFPPSDEQLKSGTASVVCLLNNFYPREAKVQWKVDNALQSGNSQESVTEQDSKDSTYSLSSTLTLSKADYEKHKVYACEVTHQGLSSPVTKSFNRGEC | 110 % of GpH7-A5/GpH7-B3/GpL16-k0 (=100)
6 | GpH7-A5/GpH7-B3 variant T335_16H/GpL16-k0 (antibody, human IgG1, kappa, also called He Ab) heavy 1: not shown heavy 2: not shown light: DIVMTQSPLSLPVTPGEPASISCQASESLVHSNRNTYLHWYLQKPGQSPQLLIYKVSNRFSGVPDRFSGSGSGTDFTLKISRVEAEDVGVYYCSQNTHVPPTFGQGTKVEIERTVAAPSVFIFPPSDEQLKSGTASVVCLLNNFYPREAKVQWKVDNALQSGNSQESVTEQDSKDSTYSLSSTLTLSKADYEKHKVYACEVTHQGLSSPVTKSFNRGEC | 108 % of GpH7-A5/GpH7-B3/GpL16-k0 (=100)
7 | GpH7-A5/GpH7-B3 variant S337_20W/GpL16-k0 (antibody, human IgG1, kappa, also called He Ab) heavy 1: not shown heavy 2: not shown light: DIVMTQSPLSLPVTPGEPASISCQASESLVHSNRNTYLHWYLQKPGQSPQLLIYKVSNRFSGVPDRFSGSGSGTDFTLKISRVEAEDVGVYYCSQNTHVPPTFGQGTKVEIERTVAAPSVFIFPPSDEQLKSGTASVVCLLNNFYPREAKVQWKVDNALQSGNSQESVTEQDSKDSTYSLSSTLTLSKADYEKHKVYACEVTHQGLSSPVTKSFNRGEC | 110 % of GpH7-A5/GpH7-B3/GpL16-k0 (=100)

More lines, now with the values ahead:

Row | He/Con_2aR | Binder
8 | 150 % of GpH7-A5/GpH7-B3/GpL16-k0 (=100) | GpH7-A5/GpH7-B3 variant V266_06M/GpL16-k0 (antibody, human IgG1, kappa, also called He Ab) heavy 1: not shown heavy 2: not shown light: DIVMTQSPLSLPVTPGEPASISCQASESLVHSNRNTYLHWYLQKPGQSPQLLIYKVSNRFSGVPDRFSGSGSGTDFTLKISRVEAEDVGVYYCSQNTHVPPTFGQGTKVEIERTVAAPSVFIFPPSDEQLKSGTASVVCLLNNFYPREAKVQWKVDNALQSGNSQESVTEQDSKDSTYSLSSTLTLSKADYEKHKVYACEVTHQGLSSPVTKSFNRGEC
9 | 101 % of GpH7-A5/GpH7-B3/GpL16-k0 (=100) | GpH7-A5/GpH7-B3 variant Y296_07I/GpL16-k0 (antibody, human IgG1, kappa, also called He Ab) heavy 1: not shown heavy 2: not shown light: DIVMTQSPLSLPVTPGEPASISCQASESLVHSNRNTYLHWYLQKPGQSPQLLIYKVSNRFSGVPDRFSGSGSGTDFTLKISRVEAEDVGVYYCSQNTHVPPTFGQGTKVEIERTVAAPSVFIFPPSDEQLKSGTASVVCLLNNFYPREAKVQWKVDNALQSGNSQESVTEQDSKDSTYSLSSTLTLSKADYEKHKVYACEVTHQGLSSPVTKSFNRGEC
10 | 106 % of GpH7-A5/GpH7-B3/GpL16-k0 (=100) | GpH7-A5/GpH7-B3 variant Y296_09D/GpL16-k0 (antibody, human IgG1, kappa, also called He Ab) heavy 1: not shown heavy 2: not shown light: DIVMTQSPLSLPVTPGEPASISCQASESLVHSNRNTYLHWYLQKPGQSPQLLIYKVSNRFSGVPDRFSGSGSGTDFTLKISRVEAEDVGVYYCSQNTHVPPTFGQGTKVEIERTVAAPSVFIFPPSDEQLKSGTASVVCLLNNFYPREAKVQWKVDNALQSGNSQESVTEQDSKDSTYSLSSTLTLSKADYEKHKVYACEVTHQGLSSPVTKSFNRGEC
11 | 106 % of GpH7-A5/GpH7-B3/GpL16-k0 (=100) | GpH7-A5/GpH7-B3 variant T335_19Q/GpL16-k0 (antibody, human IgG1, kappa, also called He Ab) heavy 1: not shown heavy 2: not shown light: DIVMTQSPLSLPVTPGEPASISCQASESLVHSNRNTYLHWYLQKPGQSPQLLIYKVSNRFSGVPDRFSGSGSGTDFTLKISRVEAEDVGVYYCSQNTHVPPTFGQGTKVEIERTVAAPSVFIFPPSDEQLKSGTASVVCLLNNFYPREAKVQWKVDNALQSGNSQESVTEQDSKDSTYSLSSTLTLSKADYEKHKVYACEVTHQGLSSPVTKSFNRGEC
